The results in this text go back to PMC6464389 (Circulation, 2019).

The experiment has as its target recombinant GPIbα extracellular domain (UniProt P07359 17-531). Put plainly: SPR. (In SPR one partner is held on a chip, and binding of the other changes the refractive index at the surface.)

B1: recombinant wild-type protein disulfide isomerase (wtPDI) (enzyme)
chain: not shown
With B1, the Kd (in general, the free concentration of one partner at which half of the binding sites on the other are occupied at equilibrium, for simple one-to-one binding) came out at 900 nM.
